Experimental data from patent publication US6312907.

Key:
[1] = biological target: B. burgdorferi N40 spirochetes (low-passage, intact cells); assay: competition: spirochetes preincubated with unlabeled competitor, then 125I-labeled Dcn
[2] = biological target: Bovine decorin (Dcn) purified from fetal skin (bovine) (UniProt P21793); assay: microtiter wells coated with increasing amounts of Dbps, biotin-labeled Dcn bound for 1 hour
[3] = biological target: Bovine decorin (Dcn) purified from fetal skin (bovine) (UniProt P21793); assay: competition: Dcn-coated wells preincubated with 200 ng protein, then B. burgdorferi N40; ELISA

Substance	percent inhibition of binding of 125I-labeled Dcn [1] [%]	activity compared with DbpA:549 [2] [%]	percent inhibition of attachment of B. burgdorferi N40 to Dcn [3] [%]
fibrinogen (KabiVitrium)	< 10	–	–
DbpA:C25A (site-directed mutant of DbpA:549)	–	< 80	93
aggrecan isolated from bovine cartilage	< 10	–	–
DbpA:549 (recombinant polyhistidine fusion of DbpA of B. burgdorferi strain 297 lacking nine amino terminal residues)	–	–	93
thyroglobulin type II (Sigma)	< 10	–	–
bovine serum albumin (BSA) (from UniProt P02769)	< 10	–	–
fetuin type IV (Sigma)	< 10	–	–
